Data: paper PMC11561172 (Nature Communications, 2024)

Molecular target: the molecule itself
Assay: cryo-EM structure

B1: RNA polymerase α subunit (natural protein, Spinacia oleracea (spinach), UniProt P06505 1-335, looked up)
chain: MVREKIRVSTQTLQWKCVESRTDSKCLHYGRFILSPLMKGQADTIGIAMRRALLGEIEGTCITRAKSEKIPHEYSTILGIQESVHEILMNLKEIVLRSNLYGTCEASICVRGPRGVTAQDIILPPYVEIVDNTQHIASLTEPIDLCIGLQLERNRGYHIKAPNNFQDGSFPIDALFMPVRNVNHSIHSYGNGNEKQEILFLEIWTNGSLTPKEALYEASRNLIDLLIPFLHAEENVNLEDNQHKVSLPLFTFHNRLAEIRKNKKKIALKFIFIDQLELPPRIYNCLKKSNIHTLLDLLNNSQEDLIKMKHFRIEDVKQIFGTLEKHFVIDLKNKR
  binding result: binds
